This note sets out measurements from the nanobody polyreactivity screen of Harvey et al. (2022).

This data set can be described thus: yeast display, Sf9 membrane polyspecificity reagent, FACS + sequencing; frameworks hold sequencing errors. In a few lines:
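A nanobody's polyreactivity label depends on the gate it was sorted from. Yeast display cells were stained with 10% biotinylated, detergent-solubilized Sf9 membrane reagent for 1 hour at 4 °C, enriched on streptavidin microbeads and sorted by FACS. The low and high (top ~1%) gates were set on anti-HA fluorescence for expression and streptavidin fluorescence for reagent binding.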
Turning to “QVQLVESGGGLVQAGGSLRLSCAASGRTFDRYAMGWYRQAPGKEREFVAVISSSGVRTNYADSVKGRFTISRDNAKNTVYFQMNSLKPEDTAVYYCAAVFWFRSLSGYIYDYWGQGTQVTVST”, the “polyreactivity (PSR sort gate)” value is listed as “low polyreactivity”. Under “QVQLVESGGGLVQARGSLRLSCAASGSTILYYAMGWYRQAPGKERELVAVIRLDAGRTYYADSVKGRFTISRDNAKNTVYFQMNSLKPEDTAVYYCAAKGCFRTYGGGNYWGQGTQVTVSS” stands “high polyreactivity”; under “QVQLVESGGGLVQAGGSRRLSCAASGRIFDTYTMGWYRQAPGKERELVAAITTGGSTYYADSVKGRFTISRDNAMNTVYLQMNSLKPEDTAVYYCAARYRSIIRYYYWGQGTQVTVSS”, “high polyreactivity”; under “QVQLVESGGGLVQEGGRLRISCAATGINFSWYAMGWNRPATGKERELVASITIGGNTNFADSVKGRFTISLYNAKNSVYLQMNSLKREDTAVYYCAAQTFWYGYGGGVYWGQGTQVTVSS”, “low polyreactivity”. Under “QVQLVESGGGLVQAGGSLRLSCAASGRTIPFYAMGWYRQAPGKERELVAAISSSAGRTYYADSVKGRFSISRDNAKNTVYLQLNSLKPEDTAVYYCAARLYCRYRYDYWGQGTQVTVSS” stands “low polyreactivity”; under “QVQRVESGGGLVQAGGSLRLSCAASGITFGPYAMGWYRQAPGKERELVAAITGSGGITYYADSVKGRFTISRDNAKNTVYLQMNSLKPEDTAVYYCAAEYPYVYGTYSDSYTEYDYWGQGTQLTVSS”, “low polyreactivity”; under “QVQLVESGGGIVQAGGSLRLSCAASGIIFRFYAMGWYRQAPGKERELVARIRSRGGSTYYADSVKGRFTISRDNAKNTVYLQMNSLKPEDTAVYYCAAGAGYPYYWGQGTQVTVSS”, “high polyreactivity”. For the sequence “QVQLVESGGGLVQAGGSLRLSCAASGRIFPNNAMGWYRQAPGKERELVAAITSIGGSTYYADSVKGRFTISRDNAKNTVYLQMNSLKPEDTAVYYCAARWERFVPTGRFSYYYYYWGQGTQVTVSS”, the “polyreactivity (PSR sort gate)” value is recorded as “high polyreactivity”. As for “QVQLVESGGGLVQAGGSLRLSCAASGITFDRNVMGWYRQAPGTERELVAAISKSGGRTYYADSVKGRFRISRDNAKNTDYLQLNSLKPEDTAVYYCNADVYSRKSLHQYEYWGQGTQVTVSS”, the entry is “high polyreactivity”; as for “QVQLVESGGGLVQAGGSHRLSCAASGLTFYQYSMGWYRQAPGKERELVAAISKSAGSTYYADSVKGRFTISRDNAKNTVYLQMNSLKPEDTAVYYCAARVLRLRYDYWGQGTQVTVSS”, “high polyreactivity”; as for “QVQLVESGGGLVQAGGSRRLICAASGITFFAYTLGWYRQAPGKERELVASITGSSGGTYYADSVKGRFTISRDNAKNTVYLQMNSLKPEDTAVYYCATAYGRKLLLRGFYDQSHDMDYWGQGTQVTVSS”, “low polyreactivity”. Under “QDQLVESRGGIVQAVRSLRLSCAASGSIFIDNAMGWYRQAPGKESEFVAAISKSATSTYYADSVKGRFTISRDNAYNTVYLEMKSLIPEDTAVYYCAVRRPRPYSNYYYWGQGTQVNVSS” stands “high polyreactivity”; under “QVQLEESGGGLVQAGGSLRLSCAASARTIFGYAMGWYRQAPGKERELVAAINWGGASTYYADSVKGRFTISRDNAKNTVYLQMNSLKPEDTAVYYCAADSVPSRPTYGRYDYWGQGTQVTVSS”, “low polyreactivity”; under “QGQLVESGGGLVQAGGSLRLSCAASGSTFWRYAMGWYRQAPGKERELVAAISRSGGSTYYADSVKGRFTISRDNAKNTVYLQMHSLKPEDTAFYYCAARYPTPYRKLGSWGQGTQVSVSS”, “high polyreactivity”. As for “QLQLVESGGGLVQAGGSLRLSCAASGITFYVYAMGCYRQAPGKERELVAAISTSGGSTYYADSVKGRFTISRDNAKNTVYFQMNSLKPEDTAVYYCAAEELRYGLYEYDYWGQGTQVTVSS”, the entry is “high polyreactivity”; as for “QVQLVESGGGLVQAGGSLRLSCAASGRNFYFYAMGWYRQAPGKEREFVATISSTGGSTYYADSVKGRFTISRDNAKNTVYLQMNSLKPEDTAVYYCAVRGWYPGFRYDYWGQGTQVTVSS”, “low polyreactivity”; as for “QVQHEESGGGLVQAGGSLRLSCAASGLILFYNDMGWYRQAPGNERELVSVITSGGRTYYADSVKGRFTISRDIAKNTVYLQMNSLKPEDTAVYYCAATYGHPTTYCEGWRYGYWGQGTQVTVSS”, “low polyreactivity”.

On to “QVQLVESGGGLVQAGGSLRLSCAASGFIFSWYVMGWYRQAPGKERELVAAISQSGGDTYYADSVKGRFTFSRDNAKNTVYLQMNILKPEDTAVYYCAVGRVGRFYYWGQGTQVTVSS”, for which the “polyreactivity (PSR sort gate)” value is reported as “high polyreactivity”. Under “QVQLVESGGGLVQAGGSLRLSCAASGSTIGSYAMGWYRQAPGKERELVAAITWNGGGTYYADSVKGRFTISRDNAKNTVYLQMNSLKPEDTAVYYCAADGWFGRVAPGSDYWGQGTQVTVSS” stands “low polyreactivity”; under “QGQLVESGGGLVQAGGSLRLSCAASGITFYSYAMGWYRQAPGKERELVAAITLTGGTTYYADSVKGRFTISRDNAKNTVYLQMNSLKPEDTAVYYCNSDYGGGVDGTYKYYSEYDYWGQGTQVTVSS”, “low polyreactivity”; under “QVQLVESGGGLVQAGGSLRLSCAASGRTFVDYDMGWYRQAPGKERELVADINSGGSTYYADSVKGRFTISRDNAKNTVYLQMNSLKPEDTAVYYCAARPYYWGQGTQVTVSS”, “high polyreactivity”. Turning to “QVQLVESGGGLVQAGGSLRLSCAASGFIFYYNAMGWYRQAPGKERELVAGISRSAGSTYYADSVKGRFTISRDNAKNTVYLQMNSLKPEDTAVYYCAALYLSYITGTSYYWGQGTQVTVSS”, the “polyreactivity (PSR sort gate)” value is “low polyreactivity”. “QVQLVESGGGLVQAGGSLRLSCAASGYIFAVYAMGWYIQAPGKEREFVAVITWRGGSTYYADSVKGRFTISRDNAKNTVYLHMNSLKPEDTAVYYCAADVYAQYDYWGQGTQVTVSS”: the “polyreactivity (PSR sort gate)” value is reported as “high polyreactivity”. As for “QLQLVETGGGLVQAGGSLRLSCAATGSTFQGYPMGWYRQAPGKDRELVAAISWNGGSTYYADSVKGRFTISRDNAKNTVYLQMNSLKPEDTAVYYCAAYSFAYSYNYWGQGTQVTVSS”, the entry is “high polyreactivity”. With “QVQLVESGGGLVQAGGSLRLSCAASGYIFPYYTMGWYRQAPGKERELVAAITIGGSTYYADSVKGRFTISRDNAKNTVYLKMNSLKPEDTAVYYCAAKYYDYLYRYIMEYWGQGTQVTVSS”, the “polyreactivity (PSR sort gate)” value is given as “low polyreactivity”. As for “QVQLVESGGGLVHAGGSLSLSCAASGSTFKDYAMGWYRQAPGKERELVAAISKGATRTYYADSVKGRFTISRDNAKITVYLQINSLKPEDTAVYYCAADRLKFRGEYDYWGQGSQVTVSS”, the entry is “high polyreactivity”.

As to “QVQLVESGGGLVQAGGSLRLSCAASGSIFSYYAMGWYRQAPGKERELVAGITWSGGRTYYADSVKGRFTISRDHAQNTVYLQMNSLKPEDTAVYYCAAVQWFSRRSRYDYWGQGTQVTVSS”, the “polyreactivity (PSR sort gate)” value was “high polyreactivity”. Consider “QVQLVESGGGLVQAGGSLRLSCAASGLIFWQYAMGCYRQAPGKERELVAAISIGGSTNYADSVKGRFTISRDNAKNTVYFQMNSLKPEDTAVYYCNAAFLRQVWAGYNYWGQGTQVTVSS”, for which the “polyreactivity (PSR sort gate)” value is given as “high polyreactivity”. Regarding “QVQLVESGGGLVQAGGSLRLSCAASGSTFAIYAMGWYRQAPAKERELVAAITRGSTSYADSVKGRFTISRDNAKNTVYLQMNSLKPEDTAVYDCAADSSRYGVIRDFDYWGQGTQVTVSS”, the “polyreactivity (PSR sort gate)” value is listed as “high polyreactivity”. Regarding “QVQLVESGGGLVQAGGSLRLSCAASGRTFLGYAMGWYRQAPGKERELVAAISSSGGSTYYADSVKGRVTISRDNAKNTVYFQMNCLKPEDTAVYYCAKRKRATGASGHGFGYWGQGTQVTVSS”, the “polyreactivity (PSR sort gate)” value is “high polyreactivity”.
